In US20090226428A1 (CEPHALON AUSTRALIA, published 2009):
Changes are numbered by the printed parent chain. One block for each binder: values may come before it.

Key:
human TNF-α [1] = molecular target: T1, human TNF-α (human, UniProt P01375 77-233); test: cell-based or functional assay
human TNF-α [2] = molecular target: T1, human TNF-α; test: receptor binding assay (ELISA): dAb mixed with TNF (10 ng/ml), binding of TNF to captured TNF receptor 1 Fc fusion protein detected; blocked partner TNF receptor 1-Fc
Protocol: dAbs diversified in the 14 selected positions were tested for the ability to inhibit the binding of TNF to recombinant TNF receptor 1 (p55). Briefly, Maxisorp plates were incubated overnight with […] anti-human Fc mouse monoclonal antibody (Zymed, San Francisco, USA). The wells were washed with phosphate buffered saline (PBS) containing 0.05% Tween-20 and then blocked with 1% BSA in PBS before being incubated with 100 ng/ml TNF receptor 1 Fc fusion protein (R&D Systems, Minneapolis, USA). Each dAb was mixed with TNF which was added to the washed wells at a final concentration of 10 ng/ml. TNF binding was detected with 0.2 mg/ml biotinylated anti-TNF antibody (HyCult biotechnology, Uben, Netherlands) followed by 1 in 500 dilution of horse radish peroxidase labelled streptavidin (Amersham Biosciences, UK) and then incubation with TMB substrate (KPL, Gaithersburg, USA). The reaction was stopped by the addition of HCl and the absorbance was read at 450 nm. Anti-TNF dAb activity lead to a decrease in TNF binding and therefore a decrease in absorbance compared with the TNF only control (FIG. 5).

T1 sequence (P01375 77-233 limits assumed): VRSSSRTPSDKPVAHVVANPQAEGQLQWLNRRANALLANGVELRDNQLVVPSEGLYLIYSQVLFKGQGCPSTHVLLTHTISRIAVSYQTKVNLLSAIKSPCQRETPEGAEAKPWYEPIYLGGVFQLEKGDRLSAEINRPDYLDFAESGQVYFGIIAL

IC50 (read off the curve) (human TNF-α [2]): ~0.03 µM
B3: Acceptor dAb (Compound 128) (other)
VL: DIQMTQSPSSLSASVGDRVTITCRASQSIDSYLHWYQQKPGKAPKLLIYSASELQSGVPSRFSGSGSGTDFTLTISSLQPEDFATYYCQQVVWRPFTFGQGTKVEIKR
notes: also called acceptor variable region (anti-TNF domain antibody)

IC50 (read off the curve) (human TNF-α [2]): ~0.03 µM
B4: Compound 145 (marmoset CDR-grafted dAb) (other)
VL: B3 VL with E53N, Q55E, S56T
notes: also called parent dAb

Second part, the binder before the results:

B1: Compound 100 (other)
VL: B3 VL with E53N, Q55E, S56T, Q79L
EC50 (read off the curve); L929 cytotoxicity assay, cell viability (% control) (human TNF-α [1]): ~0.05 µM

B2: Compound 123 (other)
VL: B3 VL with S28A, E53N, Q55E, S56T
EC50 (read off the curve); L929 cytotoxicity assay, cell viability (% control) (human TNF-α [1]): ~0.05 µM
